Data: patent publication US20140087995A1 (published 2014)
Numbered stars: 1 amine (or outer) side, 2 acyl side, 3 side chain; on linkers, the order of the positions; unused ones are H or OH. Bridge positions count the residues as written; N and C are the ends. * marks the point of attachment. C20 diacid = O=C(O)CCCCCCCCCCCCCCCCCCC(=O)*; γGlu = O=C(O)[C@H](CCC(=O)[*:2])N[*:1]

T1: human calcitonin receptor (human, UniProt P30988 25-474)
T1 construct: whole, on cells; Used as membranes prepared from the transfected cells (Assay VII); also called hCTR; hCT
T1 sequence (looked up): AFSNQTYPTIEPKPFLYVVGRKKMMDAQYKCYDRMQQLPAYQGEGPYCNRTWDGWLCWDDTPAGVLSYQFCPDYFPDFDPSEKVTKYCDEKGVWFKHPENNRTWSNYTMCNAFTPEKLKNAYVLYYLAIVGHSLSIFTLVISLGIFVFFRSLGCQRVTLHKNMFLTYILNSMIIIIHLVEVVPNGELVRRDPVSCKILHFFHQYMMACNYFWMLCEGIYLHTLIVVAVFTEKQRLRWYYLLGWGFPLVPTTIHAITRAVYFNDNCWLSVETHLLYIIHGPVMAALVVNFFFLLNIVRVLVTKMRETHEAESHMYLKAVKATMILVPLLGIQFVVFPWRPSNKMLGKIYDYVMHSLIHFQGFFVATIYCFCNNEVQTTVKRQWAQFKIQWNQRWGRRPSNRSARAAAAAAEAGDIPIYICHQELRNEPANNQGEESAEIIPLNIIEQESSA

T2: rat calcitonin receptor (rat, UniProt P32214 25-516)
T2 construct: whole, on cells; Used as membranes prepared from the transfected cells; also called rCTR; rat calcitonin (a) receptor
T2 sequence (looked up): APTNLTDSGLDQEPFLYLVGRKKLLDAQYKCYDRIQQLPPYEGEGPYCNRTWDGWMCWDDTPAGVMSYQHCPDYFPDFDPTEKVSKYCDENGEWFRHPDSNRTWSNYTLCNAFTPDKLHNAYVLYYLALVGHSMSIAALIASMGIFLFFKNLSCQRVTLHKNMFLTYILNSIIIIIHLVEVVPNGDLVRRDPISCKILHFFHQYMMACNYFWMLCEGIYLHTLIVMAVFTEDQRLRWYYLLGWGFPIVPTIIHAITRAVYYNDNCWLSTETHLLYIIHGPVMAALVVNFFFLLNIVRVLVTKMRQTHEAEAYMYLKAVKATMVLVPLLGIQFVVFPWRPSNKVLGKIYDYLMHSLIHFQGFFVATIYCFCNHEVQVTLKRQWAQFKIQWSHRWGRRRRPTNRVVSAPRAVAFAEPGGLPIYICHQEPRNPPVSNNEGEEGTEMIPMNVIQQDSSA

T3: rat amylin receptor (rat calcitonin receptor + rat RAMP 3) (rat, UniProt P32214 25-516; Q9JJ73 23-147)
T3 construct: whole, on cells; Used as membranes prepared from the transfected cells; also called rAmylin-R; rat amylin 3(a) receptor
T3 sequence (looked up) 1: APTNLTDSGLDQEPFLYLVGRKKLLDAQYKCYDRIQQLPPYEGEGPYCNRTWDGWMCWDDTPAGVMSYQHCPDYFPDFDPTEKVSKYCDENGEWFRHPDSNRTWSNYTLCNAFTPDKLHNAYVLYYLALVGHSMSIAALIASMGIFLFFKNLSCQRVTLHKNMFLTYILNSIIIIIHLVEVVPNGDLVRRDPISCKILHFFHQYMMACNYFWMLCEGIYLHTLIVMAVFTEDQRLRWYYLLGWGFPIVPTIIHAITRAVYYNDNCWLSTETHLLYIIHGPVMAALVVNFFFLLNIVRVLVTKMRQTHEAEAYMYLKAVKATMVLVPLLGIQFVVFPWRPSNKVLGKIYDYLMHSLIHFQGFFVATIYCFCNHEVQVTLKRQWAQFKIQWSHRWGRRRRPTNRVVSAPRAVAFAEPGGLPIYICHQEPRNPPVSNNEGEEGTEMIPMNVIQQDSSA
T3 sequence (looked up) 2: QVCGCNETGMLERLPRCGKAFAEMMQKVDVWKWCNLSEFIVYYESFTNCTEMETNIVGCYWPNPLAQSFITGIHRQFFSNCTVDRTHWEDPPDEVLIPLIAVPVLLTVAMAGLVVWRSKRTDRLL


How the values were obtained:
[1] = target: T1, human calcitonin receptor; assay: ratio IC50 human calcitonin receptor / IC50 human amylin receptor (Assays VII and V)
Procedure, shortened: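 IC₅₀ values were derived by one-site competition analysis of SPA counts. Cell membranes (35 ng/μL) with SPA beads were incubated with test compounds for 120 min at 25° C in Hepes buffer, pH 7.4, containing CaCl2, MgCl₂, OA and Tween20.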

rat calcitonin receptor [2] = target: T2, rat calcitonin receptor; assay: SPA competition with 125I-calcitonin, membranes of BHK cells with rat calcitonin receptor (Assay VIII)
rat calcitonin receptor [3] = target: T2, rat calcitonin receptor; assay: ratio IC50 rat calcitonin receptor / IC50 rat amylin receptor (Assays VIII and VI)
[4] = target: T3, rat amylin receptor (rat calcitonin …); assay: SPA competition with 125I-rat amylin, membranes of BHK cells with rat calcitonin receptor + rat RAMP3 (Assay VI)

Binder | Ratio hCT/hAmylin binding [1] | IC50 (rat calcitonin receptor [2]) [nM] | Ratio rCT/rAmylin binding (rat calcitonin receptor [3]) | IC50 [4] [nM]
{C20 diacid-γGlu}-KCNTATCATQRLANFLRHSSPNFGAIPSSTPVGSETY-NH2 (disulfide 2-7; SMILES CC[C@H](C)[C@H](NC(=O)[C@H](C)NC(=O)CNC(=O)[C@H](Cc1ccccc1)NC(=O)[C@H](CC(N)=O)NC(=O)[C@@H]1CCCN1C(=O)[C@H](CO)NC(=O)[C@H](CO)NC(=O)[C@H](Cc1c[nH]cn1)NC(=O)[C@H](CCCNC(=N)N)NC(=O)[C@H](CC(C)C)NC(=O)[C@H](Cc1ccccc1)NC(=O)[C@H](CC(N)=O)NC(=O)[C@H](C)NC(=O)[C@H](CC(C)C)NC(=O)[C@H](CCCNC(=N)N)NC(=O)[C@H](CCC(N)=O)NC(=O)[C@@H](NC(=O)[C@H](C)NC(=O)[C@@H]1CSSC[C@H](NC(=O)[C@H](CCCCN)NC(=O)CC[C@H](NC(=O)CCCCCCCCCCCCCCCCCCC(=O)O)C(=O)O)C(=O)N[C@@H](CC(N)=O)C(=O)N[C@@H]([C@@H](C)O)C(=O)N[C@@H](C)C(=O)N[C@@H]([C@@H](C)O)C(=O)N1)[C@@H](C)O)C(=O)N1CCC[C@H]1C(=O)N[C@@H](CO)C(=O)N[C@@H](CO)C(=O)N[C@H](C(=O)N1CCC[C@H]1C(=O)N[C@H](C(=O)NCC(=O)N[C@@H](CO)C(=O)N[C@@H](CCC(=O)O)C(=O)N[C@H](C(=O)N[C@@H](Cc1ccc(O)cc1)C(N)=O)[C@@H](C)O)C(C)C)[C@@H](C)O, Derivative of human amylin; also called compound 28) | 20.5 | 54.9 | 44.9 | 1.22
{C20 diacid-γGlu}-KCNTATCATQRLANFLRHSSPNFGAIPSSTNVGPETY-NH2 (disulfide 2-7; SMILES CC[C@H](C)[C@H](NC(=O)[C@H](C)NC(=O)CNC(=O)[C@H](Cc1ccccc1)NC(=O)[C@H](CC(N)=O)NC(=O)[C@@H]1CCCN1C(=O)[C@H](CO)NC(=O)[C@H](CO)NC(=O)[C@H](Cc1c[nH]cn1)NC(=O)[C@H](CCCNC(=N)N)NC(=O)[C@H](CC(C)C)NC(=O)[C@H](Cc1ccccc1)NC(=O)[C@H](CC(N)=O)NC(=O)[C@H](C)NC(=O)[C@H](CC(C)C)NC(=O)[C@H](CCCNC(=N)N)NC(=O)[C@H](CCC(N)=O)NC(=O)[C@@H](NC(=O)[C@H](C)NC(=O)[C@@H]1CSSC[C@H](NC(=O)[C@H](CCCCN)NC(=O)CC[C@H](NC(=O)CCCCCCCCCCCCCCCCCCC(=O)O)C(=O)O)C(=O)N[C@@H](CC(N)=O)C(=O)N[C@@H]([C@@H](C)O)C(=O)N[C@@H](C)C(=O)N[C@@H]([C@@H](C)O)C(=O)N1)[C@@H](C)O)C(=O)N1CCC[C@H]1C(=O)N[C@@H](CO)C(=O)N[C@@H](CO)C(=O)N[C@H](C(=O)N[C@@H](CC(N)=O)C(=O)N[C@H](C(=O)NCC(=O)N1CCC[C@H]1C(=O)N[C@@H](CCC(=O)O)C(=O)N[C@H](C(=O)N[C@@H](Cc1ccc(O)cc1)C(N)=O)[C@@H](C)O)C(C)C)[C@@H](C)O, Derivative of human amylin; also called compound 29) | 13.9 | 21.6 | 67 | 0.322
